According to patent publication US20170210799A1 (Janssen / Centocor, published 2017):

Columns and labels:
[1] = target: T1, human ROR1 (Receptor Tyrosine Kinase-Like Orphan Receptor 1) on cells (human, UniProt Q01973 30-937); test: MSD-CAT, cells expressing ROR1
T1 construct: whole, on cells; endogenous on SKMES-1, MDA-MB231, H358, HCC827 and MCL lines, or on HEK293 cells transfected with human ROR1 (pDR25226); the cell line is named under assay; also called cell-surface ROR1; hu ROR1

human FcγRIIIa (CD16a) = target: T2, human FcγRIIIa (CD16a) (human, UniProt P08637 17-208); test: competition AlphaScreen
T2 construct: bought, His-tagged, on Ni2+ Acceptor beads

human FcγRIIb = target: T3, human FcγRIIb (human, UniProt P31994 46-217); test: competition AlphaScreen
T3 construct: bought, His-tagged, on Ni2+ Acceptor beads; also called FcγRIIb/c (CD32b/c)
T3 sequence (looked up): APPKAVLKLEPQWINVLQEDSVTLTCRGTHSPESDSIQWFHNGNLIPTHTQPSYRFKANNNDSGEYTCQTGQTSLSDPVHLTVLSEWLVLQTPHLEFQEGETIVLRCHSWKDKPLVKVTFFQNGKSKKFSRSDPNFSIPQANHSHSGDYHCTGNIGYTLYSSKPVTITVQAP

human FcγRI (CD64) = target: T4, human FcγRI (CD64) (human, UniProt P12314 16-288); test: competition AlphaScreen
T4 construct: bought, His-tagged, on Ni2+ Acceptor beads; also called FcγR1

[2] = target: T1, human ROR1 (Receptor Tyrosine …); test: MSD-CAT; 1000 pM antibody equilibrated with serially diluted HEK293 cells overexpressing human ROR1
[3] = target: T1, human ROR1 (Receptor Tyrosine …); test: MSD-CAT; 200, 40 or 8 pM antibody equilibrated with serially diluted HEK293 cells overexpressing human ROR1
human FcγRIIa (CD32a) = target: T5, human FcγRIIa (CD32a) (human, UniProt P12318 36-218); test: AlphaScreen competition: unlabeled competitor antibody against biotinylated B21M WT IgG1 for His-tagged human FcγRIIa; 1x PBS, 0.05% BSA, 0.01% Tween-20, pH 7.2
T5 construct: bought, His-tagged, on Ni2+ Acceptor beads
T5 sequence (looked up): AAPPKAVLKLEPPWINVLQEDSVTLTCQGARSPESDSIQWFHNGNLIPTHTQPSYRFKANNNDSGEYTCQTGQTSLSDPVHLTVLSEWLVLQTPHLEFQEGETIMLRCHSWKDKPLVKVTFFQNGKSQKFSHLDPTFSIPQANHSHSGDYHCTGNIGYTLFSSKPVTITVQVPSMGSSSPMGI

[4] = target: T6, human FcRn (FCGRT/B2M Heterodimer) (human, UniProt P55899 24-297; P61769 21-119); test: AlphaScreen competition: unlabeled competitor antibody against biotinylated B21M WT IgG1 for His-tagged human FcRn; 1x PBS, 0.05% BSA, 0.01% Tween-20, pH 6.0
T6 construct: bought heterodimer, His-tagged

[5] = target: T1, human ROR1 (Receptor Tyrosine …); test: cell binding, ROR1 expressing H358 cells
[6] = target: T7, ROR1 extracellular domain c-Mer proto-oncogene tyrosine kinase transmembrane domain (ROR1 ECD MERTK tm) (Homo sapiens (Human), UniProt Q01973 30-405); test: cell binding, ROR1 transiently transfected HEK293F cells
T7 construct: also called RR1W1; ROR1-Transfected CHO

[7] = target: T8, human ROR1 (Receptor Tyrosine Kinase-Like Orphan Receptor 1) on cells (human, UniProt Q01973 30-937); test: cell binding, H358 cells
T8 construct: whole, on cells; also called hu ROR1

[8] = target: ROR1 ECD MERTK tm (RR1W1) on transfected HEK293F cells (Homo sapiens (Human), UniProt Q01973 30-405); test: cell binding, ROR1 transfected 293F cells
[9] = target: T8, human ROR1 (Receptor Tyrosine …); test: MSD-CAT, HEK293 cells expressing human ROR1; apparent KD (bivalent, avidity)

B1: RCDB5 (bispecific antibody, human IgG4 S228P, kappa, lambda, F234A L235A)
heavy 1: not shown
light 1: not shown
heavy 2: EVQLVESGGGLVQPGGSLRLSCAASGFTFNTYAMNWVRQAPGKGLEWVARIRSKYNNYATYYAASVKGRFTISRDDSKNSLYLQMNSLKTEDTAVYYCARHGNFGNSYVSWFAYWGQGTLVTVSSASTKGPSVFPLAPCSRSTSESTAALGCLVKDYFPEPVTVSWNSGALTSGVHTFPAVLQSSGLYSLSSVVTVPSSSLGTKTYTCNVDHKPSNTKVDKRVESKYGPPCPPCPAPEAAGGPSVFLFPPKPKDTLMISRTPEVTCVVVDVSQEDPEVQFNWYVDGVEVHNAKTKPREEQFNSTYRVVSVLTVLHQDWLNGKEYKCKVSNKGLPSSIEKTISKAKGQPREPQVYTLPPSQEEMTKNQVSLTCLVKGFYPSDIAVEWESNGQPENNYKTTPPVLDSDGSFLLYSKLTVDKSRWQEGNVFSCSVMHEALHNHYTQKSLSLSLGK
light 2: QTVVTQEPSLTVSPGGTVTLTCRSSTGAVTTSNYANWVQQKPGQAPRGLIGGTNKRAPGTPARFSGSLLGGKAALTLSGVQPEDEAEYYCALWYSNLWVFGGGTKLTVLGQPKAAPSVTLFPPSSEELQANKATLVCLISDFYPGAVTVAWKADSSPVKAGVETTTPSKQSNNKYAASSYLSLTPEQWKSHRSYSCQVTHEGSTVEKTVAPTECS
notes: also called ROR1×CD3 bispecific antibody
In the case of B1, the Kd [1] is reported as roughly 300 pM, the binding result (human FcγRIIIa (CD16a)) is reported as “binds” and the binding result (human FcγRIIb) is reported as “binds”. The binding result (human FcγRI (CD64)) was “binds”, the “IC50 (read off the curve)” value [2] was roughly 1000 pM and the “IC50 (read off the curve)” value [3] was roughly 400 pM. B1: binds (human FcγRIIa (CD32a)); binds [4].

B2: CD3B219 (antibody, human IgG4 S228P, lambda, F234A L235A, V domains shown)
VH: EVQLVESGGGLVQPGGSLRLSCAASGFTFNTYAMNWVRQAPGKGLEWVARIRSKYNNYATYYAASVKGRFTISRDDSKNSLYLQMNSLKTEDTAVYYCARHGNFGNSYVSWFAYWGQGTLVTVSS
VL: QTVVTQEPSLTVSPGGTVTLTCRSSTGAVTTSNYANWVQQKPGQAPRGLIGGTNKRAPGTPARFSGSLLGGKAALTLSGVQPEDEAEYYCALWYSNLWVFGGGTKLTVLG
notes: IgG4 PAA anti-CD3 parental antibody; also called anti-CD3 antibody CD3B219; anti-CD3 antibodies
B2: no binding [5]; no binding [6].

B3: CD3B219 (antibody, human IgG4 S228P, lambda, F234A L235A, V domains shown)
VH: EVQLVESGGGLVQPGGSLRLSCAASGFTFNTYAMNWVRQAPGKGLEWVARIRSKYNNYATYYAASVKGRFTISRDDSKNSLYLQMNSLKTEDTAVYYCARHGNFGNSYVSWFAYWGQGTLVTVSS
VL: QTVVTQEPSLTVSPGGTVTLTCRSSTGAVTTSNYANWVQQKPGQAPRGLIGGTNKRAPGTPARFSGSLLGGKAALTLSGVQPEDEAEYYCALWYSNLWVFGGGTKLTVLG
notes: parental anti-CD3 mAb; also called anti-CD3 antibody; Anti-CD3
B3: no binding [7]; no binding [8].

B4: RR1B67 (antibody, human IgG4 S228P, kappa, F234A L235A, V domains shown)
VH: QVQLVQSGAEVKKPGSSVKVSCKASGGTFSTYAIHWVRQAPGQGLEWMGRIIPIEGRAYYAQKFQGRVTITADESTSTAYMELSSLRSEDTAVYYCARGRYSYRYWFDYWGQGTLVTVSS
VL: EIVLTQSPATLSLSPGERATLSCRASQSVSSYLAWYQQKPGQAPRLLIYDASNRATGIPARFSGSGSGTDFTLTISSLEPEDFAVYYCQQRSNWPLTFGQGTKVEIKR
notes: huIgG4 PAA, kappa; also called RRIB67
Work on B4 yielded a Kd [9] of 55 pM.
